Assay: label from the status in PepcDB records

| Sequence | protein production |
| --- | --- |
| MRGPLSRPVCMKLGIDFGTSNSAAAAIVDGQVVPVRFGQALQFRTTVYFPETMRDPDDFSLTPALEYEVERLIDSGRRDALAAGRTPNNDSLRRDAIRIVRRQWMEEQVREPRSSAALLQNAVYGDEALDAYFLEGEGSLVQSPKSMLGYNLHPRARQTMTGIATHVLEHIRLTASRQFDINIRHATLGRPVQFRSSIGEAGNAQALEILQTAAIAAGFDSVDFLEEPAAAAMHYHVSHDSRHDTVVVDIGGGTTDVAHASVGGSAAPQVHRAWGIARGGTDIDLALSLAAYMPLFGRGITRVPTHHYVEAAMVQDMTRQREFRLHKYQDVPAPFDRRLQALQDTGNTARLYRGVEACKIALSELDRHQDALDFIERGLGVDVQAGALVASASNYLDELEGLLAQVRTEMATAPATVFLTGGMSRAGYIRDTVAAAFPESRLVHGDPSFGVVQGLAWAAAQDARLSDG | failed |
| MTSTPPTPGPKLLEERSLGGILIHFLAIPTGVVGAGLLYLLATDEFTKRNARNALDWHLTVLLITAVTFGSVFTYAELTGQGVTDVSIFPSSVSTVAGIVTSALLMLWFAVTAWTFAVGLIAMVKAIFGTAWRYPFSLALVERFGSHINLSDRWPLVILGYIVLSPLLIWAVFFVPANDAIVILSAFGLLGLILGLTPLTGIAMYRHGKEHWLQDADQQSHVFAHVGLPILVAAIGYVVSWSFTQSVSPQGDAMYVFLAAFWISSIVYLIRWWTTSSE | failed |
| MSGPEAEQQSVVLYDIEDKPPLGKAIPLGIQHVLAMFLGNVAPPLILAGAVGSVTGETTFLVQMALIVAGIATIVQAYPVGPVGARLPVVMGTSFAFLGPLIGIGNQFGIAAVFGASLLAAPVEVIMGVSFDRFRRFFPPLVTGIVVMLIGLTLIPTGMNYAAGASAGPSAEGYGSFVNLGLAGLVLIVTVGLNQFFEGFLRVISVFVGIIVGYLAALALGVVDLSAVAAAGWVTVPVPLKYGLAFEPSAVVTVAFLYIITGMETIGDISGTVSATGRNATREEIRGGLVADGVMSVFGAVFNALPNTSFSQNVGLVNFTGVASRYVAGIGGVVLLALGFIPKVGAVVSAMPDAVLGGGALILFAMIFSSGARLITQNVELDHRNSTILAMSMALGLGVAFRPEILQNFPSEVQTLFGSALVTGGMAALILNIVFPGGSVGTGPTEYTAGLEPDPVETGAGAPPVDDD | failed |
| MKQLSFNKLYFEGIKDAIPISIGYLPIGMAFGVLAKSMGIPYEISILMSLIIFAGASQFVGVNLIAIGTSSFEIVLTTFILNLRHFLMSSSLSQRIDYTKSKKFLSLISFGVTDETFAVASLKEELKLSPEFLFGLNFTAFFAWNFGTVLGIFLAESIPKEIQSSMGISLYVMFIGLLIPAVRRSTKVLKIFLVAVFISSALTWVPVFKFISTGWIIIITTIVASFIGAKFIHGDGDE | failed |
| MNVSKILVSPTVTTNVLRIFAPRLPQIGASLLVQKKWALRSKKFYRFYSEKNSGEMPPKKEADSSGKASNKSTISSIDNSQPPPPSNTNDKTKQANVAVSHAMLATREQEANKDLTSPDAQAAFYKLLLQSNYPQYVVSRFETPGIASSPECMELYMEALQRIGRHSEADAVRQNLLTASSAGAVNPSLASSSSNQSGYHGNFPSMYSPLYGSRKEPLHVVVSESTFTVVSRWVKWLLVFGILTYSFSEGFKYITENTTLLKSSEVADKSVDVAKTNVKFDDVCGCDEARAELEEIVDFLKDPTKYESLGGKLPKGVLLTGPPGTGKTLLARATAGEAGVDFFFMSGSEFDEVYVGVGAKRIRDLFAQARSRAPAIIFIDELDAIGGKRNPKDQAYAKQTLNQLLVELDGFSQTSGIIIIGATNFPEALDKALTRPGRFDKVVNVDLPDVRGRADILKHHMKKITLADNVDPTIIARGTPGLSGAELANLVNQAAVYACQKNAVSVDMSHFEWAKDKILMGAERKTMVLTDAARKATAFHEAGHAIMAKYTNGATPLYKATILPRGRALGITFQLPEMDKVDITKRECQARLDVCMGGKIAEELIYGKDNTTSGCGSDLQSATGTARAMVTQYGMSDDVGPVNLSENWESWSNKIRDIADNEVIELLKDSEERARRLLTKKNVELHRLAQGLIEYETLDAHEIEQVCKGEKLDKLKTSTNTVVEGPDSDERKDIGDDKPKIPTMLNA | failed |
| MENEVTLLDLLWALRRAFLRLLLLALGVGLGVYALSLLLPKRYESAALLWLDLRPFPSQEALRPFPSQEALRPFPSQEALSPDQPLTSPPLASLVQALDLSLPTLRLSPAGEPASRFAQVEWDAKAQVLSLRAFGATPEEAQRRATKLLEEARSFLQARVREAYGGLAAAELARAEKALGLLEKALQEEVPQVSSRGSADLAPFLEAQGTPPPVARAQDPAATYLALKRAELLAEASRLQAQVAWLRDLLAQDGTWDRFLAESVLLSPTLPERPLAPRPLAYGVLAALGALLLGVLWVFLATVLRPGGAGVPQSDA | failed |
| MRELLVFLHILSAATWIGAALWVPGDVKRTVALGRPFVEQLAARARPALKLDLYAGFAVLVTGVLLIGVDGGHPRTGILVGFAATLARLLVVGFASMPAWRRVEGAVASGDLAAATAPARRLAMLGGIGHALWAIALAGMVF | failed |
| MKKYLAGLAAVSVAGGAAPTLDSVQAAPEQNTQKAATTVQASASNNSSYTVNTSVLHVRAGSSTSHDIISRVYNGQSLNVIGEENGWFKININGKTGFVSGEFVSKSGAANNNVSTGGNNKVTADVLRVRTAPNTSSSVSGRVYAGQTLNVIGQENGWVKINHNGQVGYVSGEFVSGVSSNGGSSNNNTNNNNQEVKPASGNYTVNVSSLRVRTGPSTSHTTVGSVKKGQVVQVVGEVQDWFKINYAGQTAYISKDYVTKGGSNENVTEGNKQEQNNNGTIQTGGSYVVNATSLRVRTGPAAYHSVIGGVLNGTTLNVVGSENGWFKVNYQGKTGFVSSEFVKFVKGGTTTPEQPKQPEKPNQGTIGDYYINASALNVRSGEGTNYRIIGALPQGQKVQVISENSGWSKINYNGQTGYIGTRYLSKTPVGGAVDNKPNNNQNNNQNNNNNNNTGNNSGDSSSVLAYAKSMQGVPYVWGGTSANGVDCSGYIYHVFKKFGHNISRQSVAGYWSSLPKTSSPQPGDLIYFQNTYKSGPSHMGIYLGGGSFIQAGDKGVAIASLSNSYWKSHFLGYTKAP | failed |
| MDQKPQPAKTHATEVTVLEGKTMGTFWRASIPGIDAKRSAELKEKIQTQLDADDQLLSTYKKDSALMRFNDSQSLSPWPVSEAMADIVTTSLRIGAKTDGAMDITVGPLVNLWGFGPEQQPVQIPSQEQIDAMKAKTGLQHLTVINQSHQQYLQKDLPDLYVDLSTVGEGYAADHLARLMEQEGISRYLVSVGGALNSRGMNGEGLPWRVAIQKPTDKENAVQAVVDINGHGISTSGSYRNYYELDGKRLSHVIDPQTGRPIEHNLVSVTVIAPTALEADAWDTGLMVLGPEKAKEVVRREGLAVYMITKEGDSFKTWMSPQFKSFLVSEKNLEHHHHHH | not failed |
| MRLMIIFDLPVETSEERKEYRKFRKNLINEGFIMIQYSVYVRVCVNKKSAEFTEKRIESFLPSKGVVQSLILTEKQYNDMHFLLGKKIKEVRNSAERTIIL | failed |
| MTKQFHCVTVGNPNAGKSTLFNALTGANQQVGNWSGVTVEKKTGHFTLNGADVYLTDLPGIYDLLPAGNSCDCSLDEQIAQQYLAEQRVDGIINLVDATNIERHLYLTAQLRELSIPMVVVLNKIDAAIKRGICVDLTKMSQELGCPVIGVCSRDPADVAKVQAQVLDLLQGRVSEAPLLLDYDKQIEAGVQLLCRKDPNLSRGRALAMLGNGSGCGSCKNAQLQDEVNTCTQQIAQQGHDIEVMVATTRFNFVERVFQSSVKADGFLTLSDKLDKLVLHPVLGIPVFLFVMYLMFMFSINIGSAFIDFFDVFAGALLVDHFGALLTNIGAPAWVVTILAGGVGQGIQTVSTFIPVIAALFLGLSILESSGYMARAAFVVDGLMRRIGLPGKAFVPMIVGFGCSVPAIMATRTLGSERERIVTGMMAPFMSCGARLPVYALFAAAFFPDSGQNLVFLLYVIGIFAAIGTGLLLRSTLLPGTSSAVVMELPSYELPKFKAVMVRTGKRTKSFILGAGKTIVLVVTLLNFINAIGVDGSFGHEDSQASLLSVASQKVTPIFAPMGIEQDNWPATVGIITGIFAKEAVVGTLNSLYTNATPEGSELTPLADSFNEALATIPANLFGLDLEDPLKLSVGDVSNTEVAAETQGVATSTFSALQSGFTTKVAAFSYLLFILLYTPCVAAMGALVNEFGTRWATFAATWTFALAYGSATVVYQAATFAAHPLQSSLWIGFFLVALVMFYLWLKRKGRRTQQIIPGVRIITE | failed |
| MPKNKGKGGKNRKRGKNEADDEKRELIFKEDGQEYAQVLRMLGNGRCEAMCIDGTKRLCHIRGKMHKKVWIAAGDIVLVGLRDYQDDKADVILKYMSDEARLLKAYGELPENTRLNEGIVGDLEDDDDNNDDDYVEFEDEDIDRI | failed |
| MIQQRANFDWMLKELADGVPGVHQIVVLSADGLRIARYGGDPDAADRVAAACAGLQSLAGAVATEIPHSDGKMRMVIIEMDGAYFYMMAAGPNAYLAVLSDVTAEAGLMSNRMRDLVVRIGAHLTSPPRRNGQTV | failed |
| MPEHTPAPTPHRAVYGFAFYMLFTVLFLVYVTWALLPVEFGLHSYLPDKYFAVFVPFLVLVFAWFFAFLIYPAINLSMTVDVDSIASVVDPKLALPKGTEFTSWSQLQKGKVSQDSASKKASPVNCNLCRTFHQPVTRAPIPPLRFLDLQEVNTAYYN | failed |
| MLKKYIPLVARSFLAVIFIYAGVNKVFNFAQTSESMAKAGLPIVGVLLIFTIAFQILGGLSIILGYKAEIGAILLIIFLIPATIVFHNPFADPSQFNNFFKNLSIIGGLLLILAYGSGTLSLEASDRSSYVSQPEE | failed |
| METRASYILVGVFTLLAVTGALAFVLWTAGRGEGKAMAAYDVHFSGNVMGLSVASDVFFNGVKVGAVKQITLNPDDPAKVKVRIEIDATTPVREDSVASLEGRGLTGVSVVQITGGSPHAPLLVGTAGEVPVIASRASRLEELFAGMPQLVGSGNELVNRLADVLNAENRAALASTFHALDTVTARMAARADSLDRIITNMDTTTRRLANASAGLETLAGDMRDLTRGDMRDSIVAVGNTARRLDALLAAAEPGVTGFSTEGLEDMRRLLIESRHLVTTLNRMAQRMESDPRRFMFGNQLPEYEER | failed |
| MSVEQLNQLNIEELIITLENVLKILKQYSKVSNSSITFKEFVDYWFEAYASTAVKPSTQKRYRQLLKPALRAIGNKPLNKVKPLDIQNIYIALAGTQSNCTILKLHRLLHEIFKHAQMWEYISDNPVKKVVPPTPEKKVFDVWDVETAKRFLEIIKDEPIYYPALIALHTGMRAGEILSLKWCDVNFETRVISIVKSERKNRGLKTVNLKTKTSKRAVYMNDILYKELKNLYEITKPKPDDFVCPRLPTGNLTVNYLSRKFKKLVKKHNFPLIRFHDLRHTFATLMLSLGVNTKIVAEILGHSDIKLTADTYSHVLPTMQEEAMKEFVKLWK | failed |
| MFRSIKVASIVQIVFAVCAVLLALTVFEYKKALNTFTNDLNLTVSNTLTRLQVNLPKPLWDFDLETVKSAISAELKTPEISSIKITDTTGKAILYLTLDQATDDKGLRKTIAVENEGALAELASVSGELEFVEYGKKNPLGSIEIRYSDEFMHQQLAEYVSFNLLKVLILAILIPCMLFIILNFSVLKPLNELGDKTRTTIQWGCRPHPSVTRS | failed |
| VDWTDAERSAIVGLWGKISVDEIGPQALARLLIVSPWTQRHFSTFGNLSTPAAIMGNPAVAKHGKTVMHGLDRAVQNLDDIKNTYATLSVMHSEKLHVDPDNFRLLADCITVCVAAKLGPAVFSADTQEAFQKFLAVVVSALGRQYH | not failed |
| DPQFHREGDDIVVEREIKFTDAALGASLDVPTLEGTKRVKVPAGIQSGTKIRLKGLGFPHMGKTAKGDLYVHINVSVPRSLSADQKAILEKLREAGL | failed |
| MKCIESLGKTVDEAVKKALSELKVTEDKVEIKVIDEGSKGLLNIIGKREAKVKVTLKTDYIDEVRTFLRKVFEDMNLVIEIKIKEIGNDLFVNLFGKNIGLLIGYRGETLDSLQYLVNLVANKNHADGKYKRVILDTENYRAKREETLKRLALKISKRVKEEKSPFKLEPMNPYERRVIHSALQNDKYVRTYSEGEEPHRRVVVELKKS | not failed |

Source: a protein production outcome set (Wang et al. 2014)
